What was measured:
[1] = biological target: T1, Botulinum neurotoxin type B, subtype B3 (BoNT/B3) (Clostridium botulinum); experiment: flow cytometry; yeast-displayed scFv, soluble toxin
[2] = biological target: T2, Botulinum neurotoxin type B, subtype B4 (BoNT/B4) (Clostridium botulinum); experiment: as above
[3] = biological target: T1, Botulinum neurotoxin type B, subtype B3 …; experiment: KinExA flow fluorimetry; IgG in solution
[4] = biological target: T2, Botulinum neurotoxin type B, subtype B4 …; experiment: KinExA flow fluorimetry; IgG in solution

| Binder | Kd [1] [nM] | Kd [2] [nM] | Kd [3] [nM] | Kd [4] [nM] |
| --- | --- | --- | --- | --- |
| 4B7 scFv (yeast displayed) (scFv) QVQLQQSGPGLVKPSQTLSLTCSVSGGSINSDGSYWSWVRQHPGKGLEWIGYIYYSGTTYFNPSLKSRLTMSVDTSKNQFSLKMTSVTAADTAVYYCARMSGSRSYSQYYFDSWGQGTLVTVSSGGGGSGGGGSGGGGSDIQMTQSPSSLSASVGDRVTITCRASQSISSYLNWYQQKPGTAPKLLISDASTLQSGVPSRFSGSGSGTEFTLTISNLQPEDFATYYCQQFNSYVWTFGQGTKLEIK | 25.1 | 10 | – | – |
| 4B19.1 IgG (antibody, V domains shown) VH: QVQLVQSGAEVKKPGASVNVSCKASGYTFTGYYIYWVRQAPGQGLEWMGWINPNSGVTKYAQKFQGRVTMTIDTSTNTAYMELNRLRADDTAVYYCAREWTQLWSPYDYWGQGTTVTVSS VL: DIVLTQSPSTLSASVGDRVTISCRASRSIGWYLNWYQQRPGKAPKLLIYAASSLHNGVPSRFSGSGSGTEFTLTISSLQPDDFATYYCQQAFGFPRTFGQGTKVEIKR | – | – | 0.156 | 0.194 |
| 4B6 scFv (yeast displayed) (scFv) QVQLVQSGAEVKKPGESLVISCKASGDKDTFTSFWIAWVRQMPGKGLEWMGIIYAGDSDTRYSPSFQGHVNISVDRSTNTAYLQWSSLKASDTAMYYCARHDSRYKYFYFGMDVWGQGTTVTVSSGGGGSGGGGSGGGGSDVVMTQSPSSLSASVGDRITITCQAGQDISNFLNWYQQKPGKAPKLLIRDASNLETGVPSRFSGGGSGTHFTFTISSLHPEDIATYFCQQYDNLPYTFGQGTKLEIK | 1.08 | 1.61 | – | – |
| 1B14 scFv (yeast displayed) (scFv) EVQLVESGGGLVQPGGSLRLSCAASGFTFSSYSMNWVRQAPGKGLEWVAVIWYDGSNKYYADSVKGRFTISRDNSKNTLYLQMNSLRAEDTAVYYCARSSIVGAPYGMDVWGQGTTVTVSSGGGGSGGGGSGGGGSEIVLTQSPSSLSAAVGDRVTITCRASQNIYSYLNWYQQKLGKAPNLLIYAVFSLQSGVPSRFSGSGYGTDFTLTISSLQPEDFATYYCQQSSSSPLTFGGGTKVEIK | – | 2.12 | – | – |

From patent publication US20110200615A1 (published 2011)
